What was measured:
[1] = target: SARS-CoV-2 S receptor-binding domain (RBD), biotinylated (SARS-CoV-2, UniProt P0DTC2 330-531); test: BLI
[2] = target: biotinylated SARS-CoV RBD (SARS-CoV, UniProt P59594, biotin); test: BLI

B1: scFD20 (single-chain variable fragment of FD20) (scFv, V domains shown)
VH: QVQLQQSGAEVKKPGSSVKVSCKASGGTFSSYAFSWVRQAPGQGLEWMGRIIPILGIANYAQKFQGRVTITADISTSTAYMALSSLRSEDTAVYYCAKVEVNIGMDDYYYYYGMDVWGQGTTVTVSS
VL: not shown
- koff [1]: 0.000664 s⁻¹
- koff [2]: 0.00054 s⁻¹

— paper PMC8646660 (2021)
